From the supplement of paper PMC6757056
± gives the standard deviation of the averaged measurements.

B1: library; a variant is named by its letters at N, in order (parent)
chain: GCUGUCACCGAGAAACUGUGAAGUAUAUCUUAAACCUGGGCACUUAAAAGAUAUAUGGAGUUAGUAGUGCAACCUGCUCGGUCUGAUGAGUCCNNNNNNGGACGAAACAGC

Key:
[1] = variants of: B1; assay: normalized RNA/DNA level without ligand (relative to sTRSVctl = 100) (log10 (% of sTRSVctl)); HEK293T; ligand: cyclic di-GMP (c-di-GMP-II aptamer); higher = less ribozyme self-cleavage, higher mRNA level; conditions: reporter: mCherry (pCS4076), ligand present: no
Procedure, shortened: (§1)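 Total RNA, extracted with EDTA 72 h after HEK293T cells were transfected with 4 µg per 6-well well of reporter-linked ribozyme switch library plasmids, was reverse-transcribed, amplified, barcoded and sequenced. Ligand, if used, was added 1 h before transfection. RNA level was derived from RNA reads divided by DNA reads and normalized to a spiked-in non-cleaving sequence or to the top sequences. This was multiplied by 100 and log10-transformed, with the top set of 25 sequences and a ≥100 DNA read minimum.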

[2] = variants of: B1; assay: normalized RNA/DNA level with ligand (relative to sTRSVctl = 100) (log10 (% of sTRSVctl)); HEK293T; ligand: cyclic di-GMP (c-di-GMP-II aptamer); ligand concentration (+) RNA-Seq: 1 mM; higher = less ribozyme self-cleavage, higher mRNA level; conditions: reporter: mCherry (pCS4076), ligand present: yes
Procedure, shortened: as §1

Row | Variant | normalized RNA/DNA level without ligand (log10) [1] | normalized RNA/DNA level with ligand (log10) [2]
1 | UAAAAC | 1.697 ± 0.003 | 1.8 ± 0.1
2 | AGAGCG | 1.81 ± 0.05 | 1.84 ± 0.17
3 | AGUAUG | 1.54 ± 0.085 | 1.75 ± 0.087
4 | GGGGUA | 1.52 ± 0.018 | 1.62 ± 0.13
5 | AUCAGC | 1.82 ± 0.025 | 1.88 ± 0.13
6 | UCCCAG | 1.79 ± 0.048 | 1.9 ± 0.089
7 | GGCGUG | 1.75 ± 0.017 | 1.86 ± 0.15
8 | CUUAGG | 1.79 ± 0.072 | 1.89 ± 0.13
9 | GCUGCC | 1.67 ± 0.067 | 1.83 ± 0.16
10 | CCAUCU | 1.62 ± 0.074 | 1.76 ± 0.16
11 | AUGCAG | 1.7646 ± 0.00074 | 1.89 ± 0.055
12 | AAUAAG | 1.52 ± 0.064 | 1.7 ± 0.096
13 | CGAAGG | 1.634 ± 0.0028 | 1.82 ± 0.097
14 | AAAGCA | 1.656 ± 0.0051 | 1.77 ± 0.11
15 | CUUCCC | 1.8 ± 0.024 | 1.88 ± 0.14
16 | CCGCGU | 1.69 ± 0.02 | 1.84 ± 0.17
17 | AAUGCU | 1.73 ± 0.036 | 1.85 ± 0.12
18 | UCUCAG | 1.75 ± 0.073 | 1.89 ± 0.098
19 | CUAUGU | 1.748 ± 0.012 | 1.84 ± 0.088
20 | AAGCUG | 1.64 ± 0.019 | 1.79 ± 0.076
21 | ACGAAC | 1.53 ± 0.11 | 1.72 ± 0.067
22 | ACACCU | 1.63 ± 0.031 | 1.81 ± 0.078
23 | UAAAUC | 1.63 ± 0.033 | 1.79 ± 0.17
24 | AGUGUA | 1.51 ± 0.042 | 1.66 ± 0.11

Row | Variant | normalized RNA/DNA level without ligand (log10) [1] | normalized RNA/DNA level with ligand (log10) [2]
25 | AUCGUG | 1.59 ± 0.084 | 1.74 ± 0.027
26 | UGUUGG | 1.71 ± 0.04 | 1.86 ± 0.076
27 | CACAGG | 1.68 ± 0.029 | 1.804 ± 0.0089
28 | CUACCU | 1.59 ± 0.032 | 1.77 ± 0.078
29 | AUCCAC | 1.718 ± 0.016 | 1.85 ± 0.088
30 | CUUCCU | 1.64 ± 0.025 | 1.8 ± 0.084
31 | UAGCGA | 1.61 ± 0.053 | 1.76 ± 0.095
32 | AAUACC | 1.71 ± 0.031 | 1.86 ± 0.069
33 | UUUAUA | 1.7 ± 0.035 | 1.84 ± 0.1
34 | AAGCUA | 1.56 ± 0.024 | 1.72 ± 0.12
35 | GGCGCA | 1.86 ± 0.064 | 1.92 ± 0.023
36 | AUUUCA | 1.701 ± 0.013 | 1.85 ± 0.12
37 | UGUGCU | 1.71 ± 0.071 | 1.87 ± 0.089
38 | AAGAUG | 1.49 ± 0.055 | 1.71 ± 0.075
39 | CGUUGC | 1.78 ± 0.027 | 1.88 ± 0.071
40 | UUACAA | 1.639 ± 0.0043 | 1.82 ± 0.07
41 | GCAUGA | 1.38 ± 0.1 | 1.54 ± 0.086
42 | CUCGUU | 1.762 ± 0.005 | 1.86 ± 0.1
43 | CCCGAC | 1.7 ± 0.018 | 1.81 ± 0.14
44 | GAAGGG | 1.53 ± 0.048 | 1.69 ± 0.079
45 | UCCUUU | 1.75 ± 0.021 | 1.9 ± 0.073
46 | AGCCCU | 1.77 ± 0.047 | 1.88 ± 0.12
47 | UACAUC | 1.64 ± 0.037 | 1.81 ± 0.13
48 | AGUUGA | 1.57 ± 0.04 | 1.75 ± 0.1

Row | Variant | normalized RNA/DNA level without ligand (log10) [1] | normalized RNA/DNA level with ligand (log10) [2]
49 | GUGCCU | 1.81 ± 0.04 | 1.87 ± 0.1
50 | ACUAGG | 1.52 ± 0.071 | 1.7 ± 0.066
51 | UAGCAG | 1.82 ± 0.032 | 1.85 ± 0.032
52 | AGCUCC | 1.81 ± 0.019 | 1.88 ± 0.089
53 | ACACUU | 1.47 ± 0.091 | 1.72 ± 0.092
54 | AACUGC | 1.686 ± 0.0067 | 1.82 ± 0.089
55 | GUUCAG | 1.77 ± 0.023 | 1.86 ± 0.12
56 | CUCAAA | 1.38 ± 0.12 | 1.59 ± 0.076
57 | GGUUGU | 1.7 ± 0.061 | 1.86 ± 0.16
58 | AUCCCA | 1.76 ± 0.024 | 1.86 ± 0.091
59 | CGCGCU | 1.702 ± 0.016 | 1.83 ± 0.11
60 | AUGGUU | 1.46 ± 0.03 | 1.68 ± 0.1
61 | CAGGCG | 1.75 ± 0.091 | 1.88 ± 0.13
62 | CGCGCA | 1.65 ± 0.046 | 1.75 ± 0.13
63 | GAUACU | 1.7 ± 0.025 | 1.82 ± 0.068
64 | UUCGAU | 1.69 ± 0.066 | 1.85 ± 0.16
65 | AAUAGC | 1.62 ± 0.047 | 1.8 ± 0.1
66 | AGCUUC | 1.77 ± 0.026 | 1.9 ± 0.059
67 | ACGUAC | 1.58 ± 0.053 | 1.78 ± 0.077
68 | UUAGAC | 1.702 ± 0.0078 | 1.83 ± 0.1
69 | CACUGC | 1.76 ± 0.024 | 1.87 ± 0.096
70 | ACAUCU | 1.6 ± 0.07 | 1.76 ± 0.092
71 | AUAGUC | 1.675 ± 0.0068 | 1.83 ± 0.088
72 | GAAUUC | 1.8 ± 0.021 | 1.92 ± 0.09

Row | Variant | normalized RNA/DNA level without ligand (log10) [1] | normalized RNA/DNA level with ligand (log10) [2]
73 | GUCAGC | 1.67 ± 0.017 | 1.83 ± 0.17
74 | UGCGUG | 1.71 ± 0.084 | 1.9 ± 0.096
75 | UCGAAC | 1.62 ± 0.026 | 1.76 ± 0.1
76 | UCCUGC | 1.79 ± 0.062 | 1.91 ± 0.053
77 | AGGGUU | 1.6902 ± 0.0014 | 1.77 ± 0.056
78 | UGCAGA | 1.63 ± 0.031 | 1.8 ± 0.096
79 | ACUUUC | 1.73 ± 0.042 | 1.85 ± 0.13
80 | CCUCAU | 1.65 ± 0.064 | 1.81 ± 0.057
81 | UUUACU | 1.75 ± 0.031 | 1.88 ± 0.092
82 | CCUCUU | 1.63 ± 0.017 | 1.81 ± 0.15
83 | CGUGGC | 1.748 ± 0.0072 | 1.85 ± 0.15
84 | AUUUUG | 1.68 ± 0.045 | 1.81 ± 0.056
85 | UGUGUA | 1.61 ± 0.045 | 1.74 ± 0.072
86 | GCGCCA | 1.699 ± 0.0061 | 1.84 ± 0.13
87 | CGUUAC | 1.57 ± 0.059 | 1.74 ± 0.064
88 | CCGGCA | 1.7 ± 0.026 | 1.79 ± 0.12
89 | GACUUC | 1.74 ± 0.038 | 1.91 ± 0.1
90 | UCACCC | 1.83 ± 0.032 | 1.88 ± 0.096
91 | AACUAG | 1.616 ± 0.0088 | 1.78 ± 0.13
92 | GGUUGA | 1.57 ± 0.15 | 1.74 ± 0.035
93 | GCCCUU | 1.701 ± 0.0065 | 1.85 ± 0.097
94 | AACCUC | 1.757 ± 0.0019 | 1.85 ± 0.058
95 | GCGUAC | 1.34 ± 0.086 | 1.52 ± 0.12
96 | AUGGCU | 1.75 ± 0.031 | 1.86 ± 0.15

Row | Variant | normalized RNA/DNA level without ligand (log10) [1] | normalized RNA/DNA level with ligand (log10) [2]
97 | UUGCCU | 1.746 ± 0.0023 | 1.89 ± 0.091
98 | GUAUAA | 1.501 ± 0.012 | 1.69 ± 0.088
99 | GUCCCG | 1.76 ± 0.058 | 1.85 ± 0.21
100 | AGUACC | 1.66 ± 0.018 | 1.86 ± 0.15
101 | UACCGG | 1.68 ± 0.025 | 1.87 ± 0.11
102 | CGUCAU | 1.46 ± 0.042 | 1.64 ± 0.13
103 | GCACUG | 1.54 ± 0.092 | 1.75 ± 0.074
104 | GUCCAG | 1.76 ± 0.07 | 1.83 ± 0.1
105 | CCCCGU | 1.76 ± 0.021 | 1.88 ± 0.14
106 | UCCCUU | 1.69 ± 0.056 | 1.86 ± 0.14
107 | UCCACU | 1.695 ± 0.011 | 1.85 ± 0.12
108 | UCCAAG | 1.6 ± 0.033 | 1.78 ± 0.097
109 | UCCGGG | 1.852 ± 0.016 | 1.93 ± 0.06
110 | ACGCUG | 1.62 ± 0.039 | 1.79 ± 0.089
111 | GGCCCU | 1.877 ± 0.012 | 1.94 ± 0.057
112 | UGAGGU | 1.61 ± 0.052 | 1.79 ± 0.12
113 | UCGGCG | 1.87 ± 0.015 | 1.96 ± 0.084
114 | GUGGCU | 1.76 ± 0.029 | 1.86 ± 0.074
115 | UGCUAU | 1.676 ± 0.0088 | 1.83 ± 0.13
116 | CUAGUC | 1.75 ± 0.039 | 1.83 ± 0.055
